Experimental data from patent US6933149B2, “Culture system for mouse tracheal epithelial cells” (North Carolina State University, priority 2001, dated 2005).

Tested on: MTE cell cultures
Assay: IL-13 treatment of MTE cell cultures, Periodic Acid Schiff-stained cross-sections
Assay type: cell-based, mouse
Details: for proliferation of MTE cell cultures in response to IL-13: Method 2 cultures (5% serum until air/liquid interface)
Procedure: FIGS. 2A and 2B includes two photographs of Periodic Acid Schiff-stained cross-sections of MTE cell cultures. FIG. 2B depicts the control culture that was only exposed to the normal media required for MTE cell growth, while FIG. 2A depicts the IL-13-treated culture which was exposed to recombinant murine IL-13 (10ng/ml) for 9 days.
Epithelial cells isolated from the trachea of two mice were used to seed a one cm^2 area. Cells were placed in the apical chamber of the culture insert in medium comprising DMEM F12 plus additives (see above table). The basolateral chamber was supplied with medium and 10% FCS for 24 hours, after which FCS was no longer added to the basolateral media. Cells were maintained for 5 days and then the apical media was removed to create an air/liquid interface. Cells were then maintained in culture for approximately 16 more days.
The present methods were also used to achieve MTE cultures grown with 5% serum until the air/liquid interface is established. This is referred to as “Method 2—Combination.” This approach allows for more rapid growth of the cells while removing the confounding effects of serum for the experimentation period. […] FIGS. 2A and 2B illustrate the increase in the epithelial cell number of cell cultures exposed to an IL-13 regimen. Specifically FIGS. 2A and 2B show two photographs of Periodic Acid Schiff-stained cross-sections of MTE cell cultures. FIG. 2A depicts an IL-13-treated culture that was exposed to recombinant murine IL-13 (10ng/ml) for 9 days while FIG. 2B is a photograph of a control culture that was only exposed to the normal media required for MTE cell growth.

B1: IL-13: recombinant murine IL-13, an inflammatory mediator shown to mediate epithelial cell proliferation (protein, UniProt P20109 19-131, looked up)
Interleukin-13: APGPVPRSVSLPLTLKELIEELSNITQDQTPLCNGSMVWSVDLAAGGFCVALDSLTNISNCNAIYRTQRILHGLCNRKAPTTVSSLPDTKIEVAHFITKLLSYTKQLFRHGPF
proliferation of MTE cell cultures in response to IL-13: respond to IL-13 with proliferation
proliferation of MTE cell cultures in response to IL-13 (listed as interleukin 13): proliferate
epithelial cell number (recombinant murine IL-13 10ng/ml for 9 days vs control culture in normal media, FIGS. 2A and 2B): increase in epithelial cell number
